Reference: publication PMC9482650, “Quantitative fragmentomics allow affinity mapping of interactomes” (Nature Communications, 2022)

How the values were obtained:
Experiment in all cases: holdup assay
Parameters in all cases: key: below the threshold = too weak to quantify, mostly under pKd 3.1 to 4
[1] = target: T1, APBA2_1, Q99767
T1 sequence (Q99767 563-664, limits assumed, looked up): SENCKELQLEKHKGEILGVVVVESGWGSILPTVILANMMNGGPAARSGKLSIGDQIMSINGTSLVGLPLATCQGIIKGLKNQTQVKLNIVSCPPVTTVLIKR

[2] = target: T2, APBA3_1, O96018
T2 sequence (O96018 389-490, limits assumed, looked up): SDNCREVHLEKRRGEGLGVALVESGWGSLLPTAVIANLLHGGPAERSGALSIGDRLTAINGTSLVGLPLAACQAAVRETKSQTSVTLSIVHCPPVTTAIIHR

[3] = target: T3, CARD11, Q9BXL7
T3 sequence (Q9BXL7 662-765, limits assumed, looked up): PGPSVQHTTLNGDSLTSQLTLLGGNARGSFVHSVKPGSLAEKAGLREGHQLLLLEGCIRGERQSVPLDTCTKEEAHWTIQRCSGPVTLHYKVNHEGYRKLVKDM

[4] = target: T4, DLG3_1, Q92796
T4 sequence (Q92796 125-227, limits assumed, looked up): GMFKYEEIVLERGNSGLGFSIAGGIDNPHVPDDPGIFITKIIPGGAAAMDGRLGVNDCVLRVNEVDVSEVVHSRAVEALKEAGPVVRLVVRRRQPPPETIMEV

[5] = target: DLG4_1, P78352
[6] = target: T5, FRMPD1, Q5SYB0
T5 sequence (Q5SYB0 52-145, limits assumed, looked up): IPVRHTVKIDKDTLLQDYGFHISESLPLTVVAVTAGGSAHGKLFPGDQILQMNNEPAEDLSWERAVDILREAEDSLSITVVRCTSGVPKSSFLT

[7] = target: FRMPD4, Q14CM0
[8] = target: GRID2IP_1, A4D2P6
[9] = target: T6, GRIP1_5, Q9Y3R0
T6 sequence (Q9Y3R0 568-668, limits assumed, looked up): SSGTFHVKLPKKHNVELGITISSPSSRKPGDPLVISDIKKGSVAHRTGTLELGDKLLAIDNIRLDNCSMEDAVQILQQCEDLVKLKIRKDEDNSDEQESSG

[10] = target: T7, GRIP1_7, Q9Y3R0
T7 sequence (Q9Y3R0 999-1096, limits assumed, looked up): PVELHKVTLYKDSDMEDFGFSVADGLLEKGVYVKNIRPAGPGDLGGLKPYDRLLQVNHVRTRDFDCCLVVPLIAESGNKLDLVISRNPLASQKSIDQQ

[11] = target: IL16_4, Q14005
[12] = target: Inadl_3, Q8NI35
[13] = target: LDB3, O75112
[14] = target: T8, LIN7A, O14910
T8 sequence (O14910 103-200, limits assumed, looked up): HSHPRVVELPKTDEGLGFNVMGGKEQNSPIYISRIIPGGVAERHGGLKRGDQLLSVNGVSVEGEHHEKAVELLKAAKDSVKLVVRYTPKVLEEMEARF

[15] = target: MAGI2_3, Q86UL8
[16] = target: MAGI2_6, Q86UL8
[17] = target: T9, MPDZ_12, O75970
T9 sequence (O75970 1857-1958, limits assumed, looked up): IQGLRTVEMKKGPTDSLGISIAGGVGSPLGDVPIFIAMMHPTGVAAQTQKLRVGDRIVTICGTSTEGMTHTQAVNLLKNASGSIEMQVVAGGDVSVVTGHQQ

[18] = target: T10, MPDZ_5, O75970
T10 sequence (O75970 695-796, limits assumed, looked up): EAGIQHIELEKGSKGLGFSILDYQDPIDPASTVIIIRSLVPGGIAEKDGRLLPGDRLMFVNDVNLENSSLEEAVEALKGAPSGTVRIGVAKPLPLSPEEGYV

[19] = target: T11, NHERF3_1, Q5T2W1
T11 sequence (Q5T2W1 4-100, limits assumed, looked up): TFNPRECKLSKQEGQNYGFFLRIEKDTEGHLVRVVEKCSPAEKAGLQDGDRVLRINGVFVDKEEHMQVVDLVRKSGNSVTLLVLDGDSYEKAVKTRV

[20] = target: NOS1, P29475
[21] = target: T12, PARD3B_1, Q8TEW8
T12 sequence (Q8TEW8 196-299, limits assumed, looked up): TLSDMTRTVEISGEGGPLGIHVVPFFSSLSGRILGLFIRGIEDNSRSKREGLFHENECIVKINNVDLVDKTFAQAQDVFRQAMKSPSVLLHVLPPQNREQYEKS

[22] = target: PARD3_3, Q8TEW0
[23] = target: PDLIM1, O00151
[24] = target: T13, PDZRN3_1, Q9UPQ7
T13 sequence (Q9UPQ7 244-349, limits assumed, looked up): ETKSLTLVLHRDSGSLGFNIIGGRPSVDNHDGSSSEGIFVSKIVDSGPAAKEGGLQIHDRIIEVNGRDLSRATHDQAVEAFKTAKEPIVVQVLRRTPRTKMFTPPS

[25] = plain residues with an end cap or a label only (N-terminal biotin on a linker: ttds)
[26] = plain residues with an end cap or a label only (N-terminal biotin on a linker: ahx)

Sequence of LDB3, O75112 (O75112 1-94): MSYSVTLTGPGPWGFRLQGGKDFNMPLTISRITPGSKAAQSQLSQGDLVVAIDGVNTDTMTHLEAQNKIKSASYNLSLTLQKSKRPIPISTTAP
Sequence of GRID2IP_1, A4D2P6 (A4D2P6 1-87): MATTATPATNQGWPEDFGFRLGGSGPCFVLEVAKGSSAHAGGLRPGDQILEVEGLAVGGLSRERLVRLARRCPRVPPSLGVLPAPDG
Sequence of PDLIM1, O00151 (O00151 1-87): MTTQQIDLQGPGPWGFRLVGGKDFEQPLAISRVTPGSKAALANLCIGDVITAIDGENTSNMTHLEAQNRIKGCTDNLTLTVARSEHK
Sequence of IL16_4, Q14005 (Q14005 1229-1329): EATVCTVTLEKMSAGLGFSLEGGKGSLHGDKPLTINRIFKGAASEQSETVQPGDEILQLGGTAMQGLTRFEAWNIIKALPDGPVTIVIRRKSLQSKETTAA
Sequence of PARD3_3, Q8TEW0 (Q8TEW0 582-685): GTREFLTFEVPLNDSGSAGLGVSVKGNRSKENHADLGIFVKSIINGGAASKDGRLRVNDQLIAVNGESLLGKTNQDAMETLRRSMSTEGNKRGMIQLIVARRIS
Sequence of MAGI2_3, Q86UL8 (Q86UL8 600-682): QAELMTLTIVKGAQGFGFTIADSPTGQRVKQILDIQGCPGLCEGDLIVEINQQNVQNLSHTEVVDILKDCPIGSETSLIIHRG
Sequence of DLG4_1, P78352 (P78352 62-152): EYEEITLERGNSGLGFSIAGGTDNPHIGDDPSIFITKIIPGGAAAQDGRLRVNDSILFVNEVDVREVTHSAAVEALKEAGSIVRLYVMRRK
Sequence of NOS1, P29475 (P29475 9-101): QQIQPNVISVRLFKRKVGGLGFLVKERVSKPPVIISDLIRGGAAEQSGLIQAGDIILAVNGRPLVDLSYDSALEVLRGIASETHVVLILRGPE
Sequence of FRMPD4, Q14CM0 (Q14CM0 67-160): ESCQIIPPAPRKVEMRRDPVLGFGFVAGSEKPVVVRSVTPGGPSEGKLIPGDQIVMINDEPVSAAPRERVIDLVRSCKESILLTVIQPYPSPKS
Sequence of Inadl_3, Q8NI35 (Q8NI35 359-469): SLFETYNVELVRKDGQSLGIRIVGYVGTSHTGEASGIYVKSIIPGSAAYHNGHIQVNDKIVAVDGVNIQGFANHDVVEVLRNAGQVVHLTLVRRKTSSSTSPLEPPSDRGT
Sequence of MAGI2_6, Q86UL8 (Q86UL8 1141-1229): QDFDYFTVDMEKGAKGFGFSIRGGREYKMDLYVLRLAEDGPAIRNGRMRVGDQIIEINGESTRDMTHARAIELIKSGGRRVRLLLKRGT

**Q.** With QFQYAKESYI [TAGAP, Q8N103] as the binder, how does the pKd [1, 25] read?
**A.** below the threshold

**Q.** What about the pKd [2, 25] of the same binder?
**A.** below the threshold

**Q.** What about the pKd [3, 25] of the same binder?
**A.** below the threshold

**Q.** What about the pKd [4, 25] of the same binder?
**A.** below the threshold

**Q.** And the pKd [5, 25]?
**A.** 3.9

**Q.** And the pKd [6, 25]?
**A.** below the threshold

**Q.** What about the pKd [7, 25] of the same binder?
**A.** below the threshold

**Q.** And the pKd [8, 25]?
**A.** below the threshold

**Q.** And the pKd [9, 25]?
**A.** below the threshold

**Q.** And the pKd [10, 25]?
**A.** below the threshold

**Q.** And the pKd [11, 25]?
**A.** below the threshold

**Q.** And the pKd [12, 25]?
**A.** below the threshold

**Q.** And the pKd [13, 25]?
**A.** below the threshold

**Q.** And the pKd [14, 25]?
**A.** below the threshold

**Q.** What about the pKd [15, 25] of the same binder?
**A.** below the threshold

**Q.** And the pKd [16, 25]?
**A.** 3.99

**Q.** And the pKd [17, 25]?
**A.** below the threshold

**Q.** And the pKd [18, 25]?
**A.** below the threshold

**Q.** And the pKd [19, 25]?
**A.** 5.08

**Q.** And the pKd [20, 25]?
**A.** 3.82

**Q.** What about the pKd [21, 25] of the same binder?
**A.** 3.98

**Q.** And the pKd [22, 25]?
**A.** 3.91

**Q.** And the pKd [23, 25]?
**A.** below the threshold

**Q.** And the pKd [24, 25]?
**A.** 4.18

**Q.** What does the source list for SRRPRTETQV [HPV31-E6, P17386]?
**A.** pKd [1, 25]: below the threshold; pKd [2, 25]: below the threshold; pKd [3, 25]: below the threshold; pKd [4, 25]: 4.44; pKd [5, 25]: 5.02; pKd [6, 25]: below the threshold; pKd [7, 25]: below the threshold; pKd [8, 25]: below the threshold; pKd [9, 25]: below the threshold; pKd [10, 25]: below the threshold; pKd [11, 25]: below the threshold; pKd [12, 25]: below the threshold; pKd [13, 25]: below the threshold; pKd [14, 25]: 3.51; pKd [15, 25]: 4.1; pKd [16, 25]: below the threshold; pKd [17, 25]: below the threshold; pKd [18, 25]: below the threshold; pKd [19, 25]: 4.32; pKd [20, 25]: 3.91; pKd [21, 25]: below the threshold; pKd [22, 25]: below the threshold; pKd [23, 25]: below the threshold; pKd [24, 25]: 4.09

**Q.** How did the pKd [1, 26] turn out when TIVSWPGTFL [LNX1, Q8TBB1] was run?
**A.** below the threshold

**Q.** And the pKd [2, 26]?
**A.** below the threshold

**Q.** What about the pKd [3, 26] of the same binder?
**A.** below the threshold

**Q.** And the pKd [4, 26]?
**A.** below the threshold

**Q.** What about the pKd [5, 26] of the same binder?
**A.** below the threshold

**Q.** What about the pKd [6, 26] of the same binder?
**A.** below the threshold

**Q.** What about the pKd [7, 26] of the same binder?
**A.** 3.73

**Q.** What about the pKd [8, 26] of the same binder?
**A.** below the threshold

**Q.** What about the pKd [9, 26] of the same binder?
**A.** below the threshold

**Q.** What about the pKd [10, 26] of the same binder?
**A.** below the threshold

**Q.** And the pKd [11, 26]?
**A.** below the threshold

**Q.** And the pKd [12, 26]?
**A.** 3.62

**Q.** And the pKd [13, 26]?
**A.** below the threshold

**Q.** What about the pKd [14, 26] of the same binder?
**A.** below the threshold

**Q.** And the pKd [15, 26]?
**A.** below the threshold

**Q.** And the pKd [16, 26]?
**A.** 3.67

**Q.** And the pKd [17, 26]?
**A.** 3.54

**Q.** And the pKd [18, 26]?
**A.** below the threshold

**Q.** What about the pKd [19, 26] of the same binder?
**A.** 5.34

**Q.** What about the pKd [20, 26] of the same binder?
**A.** below the threshold

**Q.** And the pKd [21, 26]?
**A.** 4.31

**Q.** And the pKd [22, 26]?
**A.** below the threshold

**Q.** What about the pKd [23, 26] of the same binder?
**A.** 3.63

**Q.** And the pKd [24, 26]?
**A.** 3.85
